The values below come from patent US20220112288A1 (published 2022).

Where a chain is given by its changes, count along the chain named.

The chains are these.
B1: 75110_06K03A (antibody, V domains shown)
VH: QVQLQESGPGLVKPSETLSLTCTVSGGSISTYYWSWIRQPAGKGLEWIGRINTSGSTTYNPSLKSRVTMSVDTSKNQFSLKLSSVTAADTAVYYCARELERYYYYGMDVWGQGTTVTVSS
VL: DIQMTQSPSSLSASVGDRVTITCQASQDISNYLNWYQQKPGKAPKLLIYYASILETGVPSRFSGSGSGTDFTFTISSLQPEDIATYYCQQYDSLPLTFGGGTKVEIK
notes: Tested as non-clonal AlivaMab Mouse Kappa hybridoma supernatant (detected with anti-mouse Fc gamma and anti-human kappa)
B2: 75110_08F20A (antibody, V domains shown)
VH: QVQLQESGPGLVKPSETLSLTCSVSGGSISTYYWSWIRQPAGKGLEWIGRICTTENTNYNPSLKSRVTMSIDSSKNQFSLKLSSVTAADTAVYYCARDLERLNYYGMDVWGQGATVTVSS
VL: B1 VL with N31K, K42I, Y50D, I53N, I83F, L96I, G100Q, K103R, V104L
notes: as for B1
B3: 75110_08G08A (antibody, V domains shown)
VH: B2 VH
VL: B1 VL with K42I, Y50D, I53N, L96I, G100Q, K103R, V104L
notes: as for B1
B4: 75110_07J02A (antibody, V domains shown)
VH: EVQLVESGGGLVQPGGSLRLSCAASGFTFSSYWMSWVRQAPGKGLEWVANIKEDGSEKYYVDSVKGRFTISRDNAKNSLYLQMNSLRAEDTAVYYCARDGSYSGYGMDVWGQGTTVTVSS
VL: AIQMTQSPSSLSASVGDRVTITCRASQGIRNDLGWYQQKPGKAPKLLIYAASSLQSGVPSRFSGRGSGTDFALTISSLQPEDFATYYCLLDYNYPYTFGQGTRLEIK
notes: as for B1
B5: 75110_07N04A (antibody, V domains shown)
VH: QVQLQESGPGLVKPSETLSLTCSVSGVSSTSFYWSWIRQPAGKGLDWIGRIYTSGSTNYNPSLKSRVTMSVDTSKNQFSLKLSSVTAADTAVYYCARDPGYSDAFAIWGQGTMVTVSS
VL: not shown
notes: as for B1
B6: 75110_10O16A (antibody, V domains shown)
VH: EVQLVESGGGLVQPGGSLRLSCAASGFTFSNSDMHWVRQATGKGLEWVSTIGTAGDTYYPGSVKGRFTISRENAKNSLYLQMNSLRAGDTAVYYCARGGLYYYGMDVWGQGTTVTVSS
VL: ENVLTQSPGTLSLSPGERATLSCRASQSVSSSYLAWYQQKPGQAPRLLIYGASSRATGIPDRFSGSGSGTDFTLTISRLEPEDFAVYYCHQFGSSPFTFGPGTKVDIK
notes: Tested as non-clonal AlivaMab Mouse Kappa hybridoma supernatant (detected with anti-mouse Fc gamma and anti-human kappa); also called 75110_10016A
B7: 75110_01E08A (antibody, V domains shown)
VH: B6 VH with S30N, S32Y, G61A, S70Y, L100D
VL: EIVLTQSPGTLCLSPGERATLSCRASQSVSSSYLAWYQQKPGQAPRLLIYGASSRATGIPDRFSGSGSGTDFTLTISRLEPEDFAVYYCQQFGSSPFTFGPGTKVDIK
notes: as for B1
B8: 75110_08K12A (antibody, V domains shown)
VH: B6 VH with N31S, S32Y, K75E, V92L, G99D, L100Y
VL: B6 VL with N2I, S32T, S54N, H90Q, S94T
notes: as for B1

The first assay has as its target T1, human CD4 on cells (SKW3 cells; human PBMCs) (human, UniProt P01730 26-458).
T1 construct: whole, on cells; SKW3 CD4 knockout cells served as the negative cell line in the primary screen; also called hCD4; huCD4
The assay is described as follows: FACS primary screen, hybridoma supernatant, SKW3 vs SKW3 CD4 KO cells.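 Further: flow cytometry on mixed SKW3 and dye-labeled SKW3 CD4 knockout cells after 30 min at 4 °C with supernatant, ratio of binding signal on parental versus knockout cells.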
For the molecule B1, the “SKW3 WT vs KO ratio, anti-hKappa-FITC” value was 2.7 and the “SKW3 WT vs KO ratio, anti-mFc-647” value came to 7.5.

As for B2, the “SKW3 WT vs KO ratio, anti-hKappa-FITC” value amounted to 1.7 and the “SKW3 WT vs KO ratio, anti-mFc-647” value stood at 3.1.

Regarding B3, the “SKW3 WT vs KO ratio, anti-hKappa-FITC” value is 2.4 and the “SKW3 WT vs KO ratio, anti-mFc-647” value came to 5.7.

Regarding B4, the “SKW3 WT vs KO ratio, anti-hKappa-FITC” value stood at 1.3 and the “SKW3 WT vs KO ratio, anti-mFc-647” value worked out at 2.3.

With B5, the “SKW3 WT vs KO ratio, anti-hKappa-FITC” value came to 2.8 and the “SKW3 WT vs KO ratio, anti-mFc-647” value is 7.8.

For the molecule B6, the “SKW3 WT vs KO ratio, anti-hKappa-FITC” value is 1.3 and the “SKW3 WT vs KO ratio, anti-mFc-647” value worked out at 2.4.

As to B7, the “SKW3 WT vs KO ratio, anti-hKappa-FITC” value is 2.2 and the “SKW3 WT vs KO ratio, anti-mFc-647” value was found to be 5.9.

In the case of B8, the “SKW3 WT vs KO ratio, anti-hKappa-FITC” value turned out to be 1.7 and the “SKW3 WT vs KO ratio, anti-mFc-647” value stood at 4.7.

For another assay, the target named is T1, human CD4 on cells (SKW3 cells; human …). Kind of assay: FACS confirmation, supernatant on human PBMCs.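 Further: flow cytometry with hybridoma supernatants incubated on human PBMCs for 30 min at 4 °C.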
As to B1, the “PBMCs CD4+ gate RL1 binding, anti-mFc 647” value (from here on “PBMCs CD4+ gate RL1 binding”) turned out to be 296000 and the “PBMCs CD4+ percent bound of viable” value was determined as 32%.

For the molecule B2, the “PBMCs CD4+ gate RL1 binding” value came to 253000 and the “PBMCs CD4+ percent bound of viable” value was determined as 32%.

As to B3, the “PBMCs CD4+ gate RL1 binding” value came to 314000 and the “PBMCs CD4+ percent bound of viable” value worked out at 30%.

Regarding B4, the “PBMCs CD4+ gate RL1 binding” value is 89200 and the “PBMCs CD4+ percent bound of viable” value was 27%.

For B5, the “PBMCs CD4+ gate RL1 binding” value is 344000 and the “PBMCs CD4+ percent bound of viable” value worked out at 30%.

As for B6, the “PBMCs CD4+ gate RL1 binding” value was found to be 72100 and the “PBMCs CD4+ percent bound of viable” value was 23%.

Consider B7, for which the “PBMCs CD4+ gate RL1 binding” value was found to be 302000 and the “PBMCs CD4+ percent bound of viable” value amounted to 29%.

Take B8: the “PBMCs CD4+ gate RL1 binding” value was 276000 and the “PBMCs CD4+ percent bound of viable” value is 29%.

A further assay shares this target. The assay is described as follows: FACS confirmation, supernatant on SKW3 cells; background gMFI 3300.
Regarding B1, the “gMFI on SKW3 WT, anti-mFc 647” value was determined as 33600 gMFI.

For the molecule B2, the “gMFI on SKW3 WT, anti-mFc 647” value turned out to be 31500 gMFI.

As to B3, the “gMFI on SKW3 WT, anti-mFc 647” value is 19400 gMFI.

As for B4, the “gMFI on SKW3 WT, anti-mFc 647” value was 13400 gMFI.

Take B5: the “gMFI on SKW3 WT, anti-mFc 647” value is 30400 gMFI.

Consider B6, for which the “gMFI on SKW3 WT, anti-mFc 647” value is 5460 gMFI.

As to B7, the “gMFI on SKW3 WT, anti-mFc 647” value was found to be 22900 gMFI.

Regarding B8, the “gMFI on SKW3 WT, anti-mFc 647” value worked out at 16600 gMFI.

In another assay the target is T2, huCD4-HIS (human, UniProt P01730 26-390, limits assumed).
T2 construct: the ELISA is not described in the text of this stretch; also called human CD4-HIS
Kind of assay: ELISA binning; competitor ibalizumab; 100 ng/mL huCD4-HIS, anti-HIS HRP; background 45, max binding 3000000. (In general: In an ELISA, binding on a coated surface is turned into a signal by an enzyme label.)
Take B1: the “Ibalizumab ELISA binning signal” value came out at 1.65e+06.

As for B2, the “Ibalizumab ELISA binning signal” value came out at 1.41e+06.

B3: the “Ibalizumab ELISA binning signal” value was found to be 1.69e+06.

As for B4, the “Ibalizumab ELISA binning signal” value amounted to 1.98e+06.

As to B5, the “Ibalizumab ELISA binning signal” value came out at 1.66e+06.

For the molecule B6, the “Ibalizumab ELISA binning signal” value stood at 2.37e+06.

Turning to B7, the “Ibalizumab ELISA binning signal” value came to 1.84e+06.

With B8, the “Ibalizumab ELISA binning signal” value is 1.98e+06.

Another assay concerns the target T1, human CD4 on cells (SKW3 cells; human …). The assay is described as follows: FACS confirmation, supernatant on SKW3 cells; background gMFI 2500.
For B1, the “gMFI on SKW3 WT, anti-hu Kappa FITC” value amounted to 8640 gMFI.

In the case of B2, the “gMFI on SKW3 WT, anti-hu Kappa FITC” value was found to be 6170 gMFI.

On to B3, for which the “gMFI on SKW3 WT, anti-hu Kappa FITC” value turned out to be 5840 gMFI.

In the case of B4, the “gMFI on SKW3 WT, anti-hu Kappa FITC” value worked out at 3980 gMFI.

Consider B5, for which the “gMFI on SKW3 WT, anti-hu Kappa FITC” value was 6230 gMFI.

As for B6, the “gMFI on SKW3 WT, anti-hu Kappa FITC” value amounted to 3160 gMFI.

With B7, the “gMFI on SKW3 WT, anti-hu Kappa FITC” value is 6340 gMFI.

In the case of B8, the “gMFI on SKW3 WT, anti-hu Kappa FITC” value was 5300 gMFI.

The target is the same in the next assay. The assay is described as follows: FACS binning on SKW3 cells; competitor OKT4-A488; background 2163, max binding 8200.
Take B1: the “OKT4-A488 signal with supernatant” value amounted to 9140.

B2: the “OKT4-A488 signal with supernatant” value worked out at 7410.

As for B3, the “OKT4-A488 signal with supernatant” value is 8890.

For the molecule B4, the “OKT4-A488 signal with supernatant” value amounted to 8050.

Turning to B5, the “OKT4-A488 signal with supernatant” value is 9010.

Consider B6, for which the “OKT4-A488 signal with supernatant” value stood at 8260.

As for B7, the “OKT4-A488 signal with supernatant” value was 3330.

For B8, the “OKT4-A488 signal with supernatant” value was 8660.

Another assay shares this target. The assay is described as follows: FACS binning on SKW3 cells; competitor OKT4a; background 5000, max binding 35000.
B1: the “OKT4a signal (anti-hu A647) with supernatant” value (“OKT4a signal (anti-hu A647)” for short) was 33200.

As for B2, the “OKT4a signal (anti-hu A647)” value turned out to be 44800.

Take B3: the “OKT4a signal (anti-hu A647)” value was found to be 38400.

On to B4, for which the “OKT4a signal (anti-hu A647)” value is 38000.

Take B5: the “OKT4a signal (anti-hu A647)” value came out at 36100.

On to B6, for which the “OKT4a signal (anti-hu A647)” value was determined as 34800.

Take B7: the “OKT4a signal (anti-hu A647)” value was 43300.

On to B8, for which the “OKT4a signal (anti-hu A647)” value turned out to be 39200.

The target is the same in the next assay. Kind of assay: FACS binning on SKW3 cells; competitor RPA-T4-PE-Dazzle 594; background 783, max binding 15000.
On to B1, for which the “RPA-T4-PE-Dazzle 594 signal with supernatant” value (“RPA-T4-PE-Dazzle 594 signal” below) stood at 15800.

B2: the “RPA-T4-PE-Dazzle 594 signal” value is 15500.

Turning to B3, the “RPA-T4-PE-Dazzle 594 signal” value came out at 16200.

For the molecule B4, the “RPA-T4-PE-Dazzle 594 signal” value stood at 15900.

Take B5: the “RPA-T4-PE-Dazzle 594 signal” value was 15500.

In the case of B6, the “RPA-T4-PE-Dazzle 594 signal” value was determined as 15300.

As for B7, the “RPA-T4-PE-Dazzle 594 signal” value worked out at 14400.

Take B8: the “RPA-T4-PE-Dazzle 594 signal” value is 16000.
